Data taken from patent publication EP4644419A1 (Hangzhou Zhongmeihuadong Pharmaceutical Co., Ltd., dated 2025).
Positions count from the first letter of the chain named.

T1: human CD112R antigen protein huCD112R-His (Acro Biosysterm, PVG-H52H4) (human, UniProt Q6DKI7 41-171)
T1 construct: purchased; also called human antigen protein; not shown: His tag
T1 sequence (looked up): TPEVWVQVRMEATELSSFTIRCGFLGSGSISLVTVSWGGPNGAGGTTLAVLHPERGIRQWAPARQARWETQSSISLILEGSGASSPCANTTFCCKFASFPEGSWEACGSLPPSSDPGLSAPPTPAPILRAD

T2: human CD112R on GS-J2C/CD112R effector cells (human, UniProt Q6DKI7 1-326)
T2 sequence (looked up): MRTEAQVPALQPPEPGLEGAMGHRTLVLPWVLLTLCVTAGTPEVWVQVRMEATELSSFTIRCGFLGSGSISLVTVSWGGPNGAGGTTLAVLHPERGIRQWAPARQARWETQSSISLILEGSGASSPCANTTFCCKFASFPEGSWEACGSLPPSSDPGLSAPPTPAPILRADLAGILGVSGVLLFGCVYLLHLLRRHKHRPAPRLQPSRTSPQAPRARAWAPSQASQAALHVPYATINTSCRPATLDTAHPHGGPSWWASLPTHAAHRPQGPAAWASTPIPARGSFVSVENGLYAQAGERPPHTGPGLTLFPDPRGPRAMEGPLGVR

T3: human CD112R on antigen-specific CD8+ T cells (human, UniProt Q6DKI7 1-326)
T3 sequence (looked up): T2 sequence (looked up)

T4: monkey antigen protein (monkey CD112R, Uniprot ID: A0A2K5WVV8) (monkey, UniProt A0A2K5WVV8 41-171)
T4 sequence: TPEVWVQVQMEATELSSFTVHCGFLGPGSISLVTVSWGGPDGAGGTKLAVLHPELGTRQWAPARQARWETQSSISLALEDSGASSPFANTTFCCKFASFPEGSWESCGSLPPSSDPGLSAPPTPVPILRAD

B1: C12 (antibody, human IgG1, kappa, V domains shown)
VH: EVQLVASGGGLVKPGGSLKLSCAASGFTFSDYYMYWVRQTPEKRLEWVATISDGGGYTYYPDSVKGRFTISRDNDRNSLYLQMSSLKSEDTAMYYCGREDLWGQGTSVTVSS
VL: DIQMTQSPSSLSASLGERVSLTCRASQDIGSSLNWLQQEPDGTVKRLIYATSRLDSGVPKRFSGSRSGSDYSLTISSLESEDFVDYYCLQYASFPYTFGGGTKLEIKR
B2: C8 (antibody, human IgG1, kappa, V domains shown)
VH: B1 VH with Y35F, T58I, M93I, L101F
VL: B1 VL with S31R, T43S, K45R
B3: C13 (antibody, human IgG1, kappa, V domains shown)
VH: EVQLQQSGPELVKPGASVKISCKASGYTFTDYFMNWVKQSHGKSLEWIGDINPNNGSPNYNQKFKGRATLTVDKSSSTAYMELRSLTSEDSAVYYCASGYFDVWGTGTTVTVSS
VL: DIVMTQSPSSLSVSAGEKVTMSCKSSQSLLNSGTQKNYLAWYQQKPGQPPKLLIYGASTRESGVPDRFTGSGSGTDFTLTISSVQAEDLAVYYCQNDHSYPWTFGGGTKLEIKR
B4: C4 (antibody, human IgG1, kappa, V domains shown)
VH: B3 VH with N52I, G56D, R67K, S77N
VL: B3 VL with T34N, Y38F, A57T
B5: C11 (antibody, human IgG1, kappa, V domains shown)
VH: B3 VH with K38R, N52H, R67K, D73G, S98T
VL: B3 VL with T34N
B6: C1 (antibody, human IgG1, kappa, V domains shown)
VH: QVHLQQSGPELVKPGASLKISCKASGYTFTDYYLNWVKQRPGQGLEWIGWIFPGSESTFYNEKFKGKATLTVDKSSSTAYMLLNSLTSEDSAVYFCTRDGGLRGPFDYWGQGTTLTVSS
VL: DIQLTQSPSSLSASLGGKVTITCKASQDINKYIAWCQHKPGKGPRLLIHYTSTLHPGIPSRFSGSGSGRDYSFSISNLEPEDSATYYCLQYDYLLTFGGGTKLEIKR

What was measured:
[1] = target: T1, human CD112R antigen protein …; test: SPR (Biacore X100), antibody captured on Protein A chip, huCD112R-His as analyte, 1:1 Langmuir
[2] = target: T2, human CD112R on GS-J2C/CD112R effector …; test: cell-based or functional assay
[3] = target: T3, human CD112R on antigen-specific CD8+ T …; test: cell-based or functional assay
[4] = target: T4, monkey antigen protein (monkey CD112R, …); test: ELISA, monkey antigen protein (as Example 6.1)
[5] = target: T1, human CD112R antigen protein …; test: ELISA, huCD112R-His coated on plate

Binder | Kd [1] | EC50 (Blocking effects of the antibodies, reporter gene method) [2] | IFN-γ(pg/ml) at 0.5µg/ml antibody [3] | IFN-γ(pg/ml) at 5µg/ml antibody [3] | IFN-γ(pg/ml) at 50µg/ml antibody [3] | EC50 [4] | EC50 [5]
B1 | 2.9 nM | 0.024 µg/mL | 608 pg/mL | 678 pg/mL | 824 pg/mL | 0.768 nM | 0.155 nM
B2 | 0.397 nM | 0.026 µg/mL | 722 pg/mL | 783 pg/mL | 819 pg/mL | 0.047 nM | 0.046 nM
B3 | 0.0218 nM | 0.019 µg/mL | 624 pg/mL | 658 pg/mL | 767 pg/mL | 0.059 nM | 0.065 nM
B4 | 0.0141 nM | 0.024 µg/mL | 663 pg/mL | 740 pg/mL | 875 pg/mL | 0.059 nM | 0.032 nM
B5 | 0.0622 nM | 0.021 µg/mL | 676 pg/mL | 747 pg/mL | 617 pg/mL | 0.079 nM | 0.056 nM
B6 | 0.905 nM | 0.045 µg/mL | 543 pg/mL | 641 pg/mL | 755 pg/mL | 0.116 nM | 0.075 nM
